Assay results from publication PMC314469, “Protein Interaction Networks by Proteome Peptide Scanning” (PLoS Biology, 2004).

Columns and labels:
[1] = biological target: endophilin SH3 (SH3G2_HUMAN), Q99962; experiment: SPOT array
[2] = biological target: T1, amphyphisin SH3 (AMPH_HUMAN), P49418; experiment: SPOT array
T1 chain: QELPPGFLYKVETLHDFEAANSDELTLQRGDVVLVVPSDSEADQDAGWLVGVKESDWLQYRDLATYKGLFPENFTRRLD

Q: Which results are given for WSLKLSRPSKDYLL [Q9UL63 619-632]?
A: normalised SPOT signal, Boehringer light units (BLU); mean over the file's lines of this peptide [1]: 2270; normalised SPOT signal, Boehringer light units (BLU); mean over the file's lines of this peptide [2]: 1110

Q: YKVNLKRPSPFWAE [Q9NR62 73-86] was tested. Which normalised SPOT signal, Boehringer light units (BLU); mean over the file's lines of this peptide [1] did it give?
A: The normalised SPOT signal, Boehringer light units (BLU); mean over the file's lines of this peptide was 42.2.

Q: And the normalised SPOT signal, Boehringer light units (BLU); mean over the file's lines of this peptide [2]?
A: The normalised SPOT signal, Boehringer light units (BLU); mean over the file's lines of this peptide was 30.9.

Q: YHPPIFRPMKRITW [Q9GZT8 65-78] was tested. Which normalised SPOT signal, Boehringer light units (BLU); mean over the file's lines of this peptide [1] did it give?
A: Its normalised SPOT signal, Boehringer light units (BLU); mean over the file's lines of this peptide is 293.

Q: What about the normalised SPOT signal, Boehringer light units (BLU); mean over the file's lines of this peptide [2] of the same binder?
A: The normalised SPOT signal, Boehringer light units (BLU); mean over the file's lines of this peptide was 145.

Q: Which results are given for WLGSLRRPSLVHGY [Q96G29 26-39]?
A: normalised SPOT signal, Boehringer light units (BLU); mean over the file's lines of this peptide [1]: 2680; normalised SPOT signal, Boehringer light units (BLU); mean over the file's lines of this peptide [2]: 879

Q: Which results are given for YHPNPKRPGLDREQ [Q8WXI7 2968-2981]?
A: normalised SPOT signal, Boehringer light units (BLU); mean over the file's lines of this peptide [1]: 34.1; normalised SPOT signal, Boehringer light units (BLU); mean over the file's lines of this peptide [2]: 43.3

Q: What does the source list for YDTFPEKPPPSPGD [Q9UGQ3 12-26]?
A: normalised SPOT signal, Boehringer light units (BLU); mean over the file's lines of this peptide [1]: 97.2; normalised SPOT signal, Boehringer light units (BLU); mean over the file's lines of this peptide [2]: 33

Q: For YENKPRRPYILKRD [P30990 153-166], which normalised SPOT signal, Boehringer light units (BLU); mean over the file's lines of this peptide [1] is on record?
A: The normalised SPOT signal, Boehringer light units (BLU); mean over the file's lines of this peptide was 208.

Q: What about the normalised SPOT signal, Boehringer light units (BLU); mean over the file's lines of this peptide [2] of the same binder?
A: The normalised SPOT signal, Boehringer light units (BLU); mean over the file's lines of this peptide was 51.5.

Q: What does the source list for WTEDPRRPLPWALS [P42898 339-352]?
A: normalised SPOT signal, Boehringer light units (BLU); mean over the file's lines of this peptide [1]: 110; normalised SPOT signal, Boehringer light units (BLU); mean over the file's lines of this peptide [2]: 38.4

Q: How did the normalised SPOT signal, Boehringer light units (BLU); mean over the file's lines of this peptide [1] turn out when YLQLPPRPPGTRAS [Q9H4M7 331-345] was run?
A: The normalised SPOT signal, Boehringer light units (BLU); mean over the file's lines of this peptide was 1230.

Q: What about the normalised SPOT signal, Boehringer light units (BLU); mean over the file's lines of this peptide [2] of the same binder?
A: The normalised SPOT signal, Boehringer light units (BLU); mean over the file's lines of this peptide was 235.

Q: Which results are given for WVTMPRRPPPSGGL [Q9P2P9 924-937]?
A: normalised SPOT signal, Boehringer light units (BLU); mean over the file's lines of this peptide [1]: 2400; normalised SPOT signal, Boehringer light units (BLU); mean over the file's lines of this peptide [2]: 31

Q: What does the source list for YKVNLKRPSPFWND [Q96HE7 77-90]?
A: normalised SPOT signal, Boehringer light units (BLU); mean over the file's lines of this peptide [1]: 28.6; normalised SPOT signal, Boehringer light units (BLU); mean over the file's lines of this peptide [2]: 47.4

Q: Which normalised SPOT signal, Boehringer light units (BLU); mean over the file's lines of this peptide [1] does the source give for WRKIPKRPGSVHRT [P11229 442-455] here?
A: The normalised SPOT signal, Boehringer light units (BLU); mean over the file's lines of this peptide was 573.

Q: And the normalised SPOT signal, Boehringer light units (BLU); mean over the file's lines of this peptide [2]?
A: Its normalised SPOT signal, Boehringer light units (BLU); mean over the file's lines of this peptide is 48.9.

Q: Which results are given for YPNKIKRPSLEDVT [Q13495 6-19]?
A: normalised SPOT signal, Boehringer light units (BLU); mean over the file's lines of this peptide [1]: 94.9; normalised SPOT signal, Boehringer light units (BLU); mean over the file's lines of this peptide [2]: 24.9

Q: What does the source list for WPAGPRRPHRSSAS [Q9NP08 303-316]?
A: normalised SPOT signal, Boehringer light units (BLU); mean over the file's lines of this peptide [1]: 4250; normalised SPOT signal, Boehringer light units (BLU); mean over the file's lines of this peptide [2]: 7190

Q: What does the source list for SPPIPRRPAEPPWP [Q9HBU2 317-330]?
A: normalised SPOT signal, Boehringer light units (BLU); mean over the file's lines of this peptide [1]: 1380; normalised SPOT signal, Boehringer light units (BLU); mean over the file's lines of this peptide [2]: 33

Q: How did the normalised SPOT signal, Boehringer light units (BLU); mean over the file's lines of this peptide [1] turn out when YPQDLPRPLRSREF [O43734 232-245] was run?
A: The normalised SPOT signal, Boehringer light units (BLU); mean over the file's lines of this peptide was 95.9.

Q: And the normalised SPOT signal, Boehringer light units (BLU); mean over the file's lines of this peptide [2]?
A: The normalised SPOT signal, Boehringer light units (BLU); mean over the file's lines of this peptide was 154.

Q: With YGLTFRRPRGLFIT [Q16798 148-161] as the binder, how does the normalised SPOT signal, Boehringer light units (BLU); mean over the file's lines of this peptide [1] read?
A: The normalised SPOT signal, Boehringer light units (BLU); mean over the file's lines of this peptide was 347.

Q: And the normalised SPOT signal, Boehringer light units (BLU); mean over the file's lines of this peptide [2]?
A: The normalised SPOT signal, Boehringer light units (BLU); mean over the file's lines of this peptide was 23.2.

Q: How did the normalised SPOT signal, Boehringer light units (BLU); mean over the file's lines of this peptide [1] turn out when YGHIFRRPKGLFIS [P23368 123-136] was run?
A: The normalised SPOT signal, Boehringer light units (BLU); mean over the file's lines of this peptide was 110.

Q: What about the normalised SPOT signal, Boehringer light units (BLU); mean over the file's lines of this peptide [2] of the same binder?
A: The normalised SPOT signal, Boehringer light units (BLU); mean over the file's lines of this peptide was 35.9.

Q: WSRSPPRPPRERFE [Q9UP58 185-199] was tested. Which normalised SPOT signal, Boehringer light units (BLU); mean over the file's lines of this peptide [1] did it give?
A: Its normalised SPOT signal, Boehringer light units (BLU); mean over the file's lines of this peptide is 18400.

Q: And the normalised SPOT signal, Boehringer light units (BLU); mean over the file's lines of this peptide [2]?
A: Its normalised SPOT signal, Boehringer light units (BLU); mean over the file's lines of this peptide is 7550.

Q: YLGKPSRPPHLLLE [Q9H5Q4 87-101] was tested. Which normalised SPOT signal, Boehringer light units (BLU); mean over the file's lines of this peptide [1] did it give?
A: Its normalised SPOT signal, Boehringer light units (BLU); mean over the file's lines of this peptide is 1770.

Q: And the normalised SPOT signal, Boehringer light units (BLU); mean over the file's lines of this peptide [2]?
A: The normalised SPOT signal, Boehringer light units (BLU); mean over the file's lines of this peptide was 44.1.

Q: Which normalised SPOT signal, Boehringer light units (BLU); mean over the file's lines of this peptide [1] does the source give for WRYDLRRPSFTRTW [Q96N50 15-28] here?
A: The normalised SPOT signal, Boehringer light units (BLU); mean over the file's lines of this peptide was 628.

Q: What about the normalised SPOT signal, Boehringer light units (BLU); mean over the file's lines of this peptide [2] of the same binder?
A: Its normalised SPOT signal, Boehringer light units (BLU); mean over the file's lines of this peptide is 140.
